The values that follow come from patent US20120040915A1 (MAYO FOUNDATION FOR MEDICAL EDUCATION AND RESEARCH, published 2012).

Ends that are not written are not given here. * marks the point of attachment. Biotin = O=C1N[C@H]2[C@H](CS[C@H]2CCCCC(=O)*)N1

This assay deals with T1, PDZ domain of GIPC/synectin displayed on T7 phage (UniProt O14908 133-213, limits assumed).
T1 construct: domain: PDZ domain; also called GIPC/Synectin-PDZ T7 phage; GIPC-PDZ
T1 sequence (looked up): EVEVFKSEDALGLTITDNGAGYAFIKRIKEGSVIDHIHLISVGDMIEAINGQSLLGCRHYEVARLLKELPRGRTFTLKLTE
As to the kind of experiment: phage ELISA, biotinylated peptide on Neutravidin plate, GIPC-PDZ T7 phage. Here is the method:
Neutravidin plates (Pierce) were coated in duplicate with 100 μL of 10 μg/mL solutions of N-terminal biotinylated peptides ([…] (SEQ ID NO: 3) (from GAIP), KKETEV (SEQ ID NO: 12) and KKETAV (SEQ ID NO: 13) (two sequences that bind PDZ3 of PSD-95 (21), and allowed to incubate 1-2 h at 37° C. (or overnight at 4° C.) with mild shaking. The unbound peptides were washed away three times with TBS (0.5% Tween-20)-TBST buffer. Blocking buffer was prepared by diluting BSA […] in TBS stock two-fold in dH2O (for a 5% BSA final concentration) and free biotin (1 mM). Alternatively, SuperBlock in PBS buffer (Pierce) with free biotin (1 mM) was used. The blocking buffer was added to each well and allowed to incubate 30-60 min at 37° C. with mild shaking. The blocking buffer was washed away with TBST by inverting the plate and tapping off the excess with each of the 4-5 washes. The GIPC/Synectin-PDZ T7 phage to be screened with the biotinylated peptides were prepared by adding phage stock (1 mL, 20 μL) derived from one of the eight plaques (discussed above) to freshly harvested BLT5403 E. coli at OD ˜1. Once lysis was observed, the cell debris was spun down and phage lysate was used in a plaque assay (as discussed above) to determine the titer (phage titer added to wells 5×10⁹ pfu). […] The substrate was added to each well, and the development was measured at 405 nm after 30 min, 1 h and 2 h.

Biotin-KKETEV (Comparison peptide in the phage ELISA) [N-terminal biotinylated peptide KKETEV (SEQ ID NO: 12)]: the binding result is given as “no binding”.
As to Biotin-KKETAV (Comparison peptide in the phage ELISA) [N-terminal biotinylated peptide KKETAV (SEQ ID NO: 13)], the binding result was “no binding”.
